Test results as given in patent US20200317768A1 (published 2020).

Target: T1, human FcγRIIIaV extracellular domain with C-terminal His-tag (human, UniProt P08637 17-208)
T1 construct: also called human FcgRIIIaV
Test: SPR (BIACORE), antibody captured, FcgR analyte

T1 sequence (P08637 17-208 F176V): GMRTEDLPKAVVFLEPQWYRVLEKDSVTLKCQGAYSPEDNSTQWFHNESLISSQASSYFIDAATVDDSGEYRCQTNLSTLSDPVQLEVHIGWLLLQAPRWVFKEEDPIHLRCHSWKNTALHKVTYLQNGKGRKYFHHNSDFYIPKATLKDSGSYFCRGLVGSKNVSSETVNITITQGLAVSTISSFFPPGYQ

Binder | Kd
M103205H795-MY209/M103202L889-SK1 (antibody, human IgG1, kappa, Substitutions introduced into M103205H795-SG1, expressed with M103202L889-SK1 as light chain; EU numbering) heavy: QVTLKESGPVLVKPTETLTLTCTVSGIDLSHDDISWVRQAPGKGLEWVGIISYAGSTYYASWAKGRLTISKDTSKNQVVLTMTNMDPVDTATYYCARGVPAYSHGGDLWGQGTLVTVSSASTKGPSVFPLAPSSKSTSGGTAALGCLVKDYFPEPVTVSWNSGALTSGVHTFPAVLQSSGLYSLSSVVTVPSSSLGTQTYICNVNHKPSNTKVDKKVEPKSCDKTHTCPPCPAPELLNGPSVFLFPPKPKDTLMISRTPEVTCVVVDVSDEDPEVKFNWYVDGVEVHNAKTKPREELYNSTYRVVSVLTVLHQDWLNGKEYKCKVSNTALPKPIEKTISKAKGQPREPQVYTLPPSREEMTKNQVSLTCLVKGFYPSDIAVEWESNGQPENNYKTTPPVLDSDGSFFLYSKLTVDKSRWQQGNVFSCSVMHEALHNHYTQKSLSLSP light: DIVMTQSPATLSLSPGERATLSCTSSQSVYHANWLSWFQQKPGQPPKLLIYWASTLAYGVPSRFSGSGSGTDFTLTISSLQPEDAATYYCAGGYGGGRYAFGQGTKVEIKRTVAAPSVFIFPPSDEQLKSGTASVVCLLNNFYPREAKVQWKVDNALQSGNSQESVTEQDSKDSTYSLSSTLTLSKADYEKHKVYACEVTHQGLSSPVTKSFNRGEC | 14 µM
M103205H795-MY339/M103202L889-SK1 (antibody, human IgG1, kappa, Substitutions introduced into M103205H795-SG1, expressed with M103202L889-SK1 as light chain; EU numbering) heavy: QVTLKESGPVLVKPTETLTLTCTVSGIDLSHDDISWVRQAPGKGLEWVGIISYAGSTYYASWAKGRLTISKDTSKNQVVLTMTNMDPVDTATYYCARGVPAYSHGGDLWGQGTLVTVSSASTKGPSVFPLAPSSKSTSGGTAALGCLVKDYFPEPVTVSWNSGALTSGVHTFPAVLQSSGLYSLSSVVTVPSSSLGTQTYICNVNHKPSNTKVDKKVEPKSCDKTHTCPPCPAPELLLGPSVFLFPPKPKDTLMISRTPEVTCVVVDVSDEDPEVKFNWYVDGVEVHNAKTKPREEQYNSTYRVVSVLTVLHQDWLNGKEYKCKVSNTALPKPIEKTISKAKGQPREPQVYTLPPSREEMTKNQVSLTCLVKGFYPSDIAVEWESNGQPENNYKTTPKVLDSDGSFFLYSKLTVDKSRWQQGNVFSCSVMHEALHNHYTQKSLSLSP light: DIVMTQSPATLSLSPGERATLSCTSSQSVYHANWLSWFQQKPGQPPKLLIYWASTLAYGVPSRFSGSGSGTDFTLTISSLQPEDAATYYCAGGYGGGRYAFGQGTKVEIKRTVAAPSVFIFPPSDEQLKSGTASVVCLLNNFYPREAKVQWKVDNALQSGNSQESVTEQDSKDSTYSLSSTLTLSKADYEKHKVYACEVTHQGLSSPVTKSFNRGEC | 5.6 µM
M103205H795-MY341/M103202L889-SK1 (antibody, human IgG1, kappa, Substitutions introduced into M103205H795-SG1, expressed with M103202L889-SK1 as light chain; EU numbering) heavy: QVTLKESGPVLVKPTETLTLTCTVSGIDLSHDDISWVRQAPGKGLEWVGIISYAGSTYYASWAKGRLTISKDTSKNQVVLTMTNMDPVDTATYYCARGVPAYSHGGDLWGQGTLVTVSSASTKGPSVFPLAPSSKSTSGGTAALGCLVKDYFPEPVTVSWNSGALTSGVHTFPAVLQSSGLYSLSSVVTVPSSSLGTQTYICNVNHKPSNTKVDKKVEPKSCDKTHTCPPCPAPELLLGPSVFLFPPKPKDTLMISRTPEVTCVVVDVSDEDPEVKFNWYVDGVEVHNAKTKPREELYNSTYRVVSVLTVLHQDWLNGKEYKCKVSNTALPKPIEKTISKAKGQPREPQVYTLPPSREEMTKNQVSLTCLVKGFYPSDIAVEWESNGQPENNYKTTPKVLDSDGSFFLYSKLTVDKSRWQQGNVFSCSVMHEALHNHYTQKSLSLSP light: DIVMTQSPATLSLSPGERATLSCTSSQSVYHANWLSWFQQKPGQPPKLLIYWASTLAYGVPSRFSGSGSGTDFTLTISSLQPEDAATYYCAGGYGGGRYAFGQGTKVEIKRTVAAPSVFIFPPSDEQLKSGTASVVCLLNNFYPREAKVQWKVDNALQSGNSQESVTEQDSKDSTYSLSSTLTLSKADYEKHKVYACEVTHQGLSSPVTKSFNRGEC | 7 µM
M103205H795-MY380/M103202L889-SK1 (antibody, human IgG1, kappa, Substitutions introduced into M103205H795-SG1, expressed with M103202L889-SK1 as light chain; EU numbering) heavy: QVTLKESGPVLVKPTETLTLTCTVSGIDLSHDDISWVRQAPGKGLEWVGIISYAGSTYYASWAKGRLTISKDTSKNQVVLTMTNMDPVDTATYYCARGVPAYSHGGDLWGQGTLVTVSSASTKGPSVFPLAPSSKSTSGGTAALGCLVKDYFPEPVTVSWNSGALTSGVHTFPAVLQSSGLYSLSSVVTVPSSSLGTQTYICNVNHKPSNTKVDKKVEPKSCDKTHTCPPCPAPELLNGPSVFLFPPKPKDTLMISRTPEVTCVVVDVSEEDPEVKFNWYVDGVEVHNAKTKPREEQYNSTYRVVSVLTVLHQDWLNGKEYKCKVSNKALPKPIEKTISKAKGQPREPQVYTLPPSREEMTKNQVSLTCLVKGFYPSDIAVEWESNGQPENNYKTTPKVLDSDGSFFLYSKLTVDKSRWQQGNVFSCSVMHEALHNHYTQKSLSLSP light: DIVMTQSPATLSLSPGERATLSCTSSQSVYHANWLSWFQQKPGQPPKLLIYWASTLAYGVPSRFSGSGSGTDFTLTISSLQPEDAATYYCAGGYGGGRYAFGQGTKVEIKRTVAAPSVFIFPPSDEQLKSGTASVVCLLNNFYPREAKVQWKVDNALQSGNSQESVTEQDSKDSTYSLSSTLTLSKADYEKHKVYACEVTHQGLSSPVTKSFNRGEC | 10 µM
M103205H795-MY386/M103202L889-SK1 (antibody, human IgG1, kappa, Substitutions introduced into M103205H795-SG1, expressed with M103202L889-SK1 as light chain; EU numbering) heavy: QVTLKESGPVLVKPTETLTLTCTVSGIDLSHDDISWVRQAPGKGLEWVGIISYAGSTYYASWAKGRLTISKDTSKNQVVLTMTNMDPVDTATYYCARGVPAYSHGGDLWGQGTLVTVSSASTKGPSVFPLAPSSKSTSGGTAALGCLVKDYFPEPVTVSWNSGALTSGVHTFPAVLQSSGLYSLSSVVTVPSSSLGTQTYICNVNHKPSNTKVDKKVEPKSCDKTHTCPPCPAPELLLGPSVFLFPPKPKDTLMISRTPEVTCVVVDVSDEDPEVKFNWYVDGVEVHNAKTKPREELYNSTYRVVSVLTVLHQDWLNGKEYKCKVSNTALPKPIEKTISKAKGQPREPQVYTLPPSREEMTKNQVSLTCLVKGFYPSDIAVEWESNGQPENNYKTTPPVLDSDGSFFLYSKLTVDKSRWQQGNVFSCSVMHEALHNHYTQKSLSLSP light: DIVMTQSPATLSLSPGERATLSCTSSQSVYHANWLSWFQQKPGQPPKLLIYWASTLAYGVPSRFSGSGSGTDFTLTISSLQPEDAATYYCAGGYGGGRYAFGQGTKVEIKRTVAAPSVFIFPPSDEQLKSGTASVVCLLNNFYPREAKVQWKVDNALQSGNSQESVTEQDSKDSTYSLSSTLTLSKADYEKHKVYACEVTHQGLSSPVTKSFNRGEC | 24 µM
M103205H795-MY342/M103202L889-SK1 (antibody, human IgG1, kappa, Substitutions introduced into M103205H795-SG1, expressed with M103202L889-SK1 as light chain; EU numbering) heavy: QVTLKESGPVLVKPTETLTLTCTVSGIDLSHDDISWVRQAPGKGLEWVGIISYAGSTYYASWAKGRLTISKDTSKNQVVLTMTNMDPVDTATYYCARGVPAYSHGGDLWGQGTLVTVSSASTKGPSVFPLAPSSKSTSGGTAALGCLVKDYFPEPVTVSWNSGALTSGVHTFPAVLQSSGLYSLSSVVTVPSSSLGTQTYICNVNHKPSNTKVDKKVEPKSCDKTHTCPPCPAPELLLGPSVFLFPPKPKDTLMISRTPEVTCVVVDVSDEDPEVKFNWYVDGVEVHNAKTKPREELYNSTYRVVSVLTVLHQDWLNGKEYKCKVSNKALPKPIEKTISKAKGQPREPQVYTLPPSREEMTKNQVSLTCLVKGFYPSDIAVEWESNGQPENNYKTTPMVLDSDGSFFLYSKLTVDKSRWQQGNVFSCSVMHEALHNHYTQKSLSLSP light: DIVMTQSPATLSLSPGERATLSCTSSQSVYHANWLSWFQQKPGQPPKLLIYWASTLAYGVPSRFSGSGSGTDFTLTISSLQPEDAATYYCAGGYGGGRYAFGQGTKVEIKRTVAAPSVFIFPPSDEQLKSGTASVVCLLNNFYPREAKVQWKVDNALQSGNSQESVTEQDSKDSTYSLSSTLTLSKADYEKHKVYACEVTHQGLSSPVTKSFNRGEC | 25 µM
M103205H795-MY387/M103202L889-SK1 (antibody, human IgG1, kappa, Substitutions introduced into M103205H795-SG1, expressed with M103202L889-SK1 as light chain; EU numbering) heavy: QVTLKESGPVLVKPTETLTLTCTVSGIDLSHDDISWVRQAPGKGLEWVGIISYAGSTYYASWAKGRLTISKDTSKNQVVLTMTNMDPVDTATYYCARGVPAYSHGGDLWGQGTLVTVSSASTKGPSVFPLAPSSKSTSGGTAALGCLVKDYFPEPVTVSWNSGALTSGVHTFPAVLQSSGLYSLSSVVTVPSSSLGTQTYICNVNHKPSNTKVDKKVEPKSCDKTHTCPPCPAPELLTGPVVFLFPPKPKDTLMISRTPEVTCVVVDVSDEDPEVKFNWYVDGVEVHNAKTKPREEQYNSTYRVVSVLTVLHQDWLNGKEYKCKVSNKALPKPIEKTISKAKGQPREPQVYTLPPSREEMTKNQVSLTCLVKGFYPSDIAVEWESNGQPENNYKTTPPVLDSDGSFFLYSKLTVDKSRWQQGNVFSCSVMHEALHNHYTQKSLSLSP light: DIVMTQSPATLSLSPGERATLSCTSSQSVYHANWLSWFQQKPGQPPKLLIYWASTLAYGVPSRFSGSGSGTDFTLTISSLQPEDAATYYCAGGYGGGRYAFGQGTKVEIKRTVAAPSVFIFPPSDEQLKSGTASVVCLLNNFYPREAKVQWKVDNALQSGNSQESVTEQDSKDSTYSLSSTLTLSKADYEKHKVYACEVTHQGLSSPVTKSFNRGEC | 4.7 µM
M103205H795-MY340/M103202L889-SK1 (antibody, human IgG1, kappa, Substitutions introduced into M103205H795-SG1, expressed with M103202L889-SK1 as light chain; EU numbering) heavy: QVTLKESGPVLVKPTETLTLTCTVSGIDLSHDDISWVRQAPGKGLEWVGIISYAGSTYYASWAKGRLTISKDTSKNQVVLTMTNMDPVDTATYYCARGVPAYSHGGDLWGQGTLVTVSSASTKGPSVFPLAPSSKSTSGGTAALGCLVKDYFPEPVTVSWNSGALTSGVHTFPAVLQSSGLYSLSSVVTVPSSSLGTQTYICNVNHKPSNTKVDKKVEPKSCDKTHTCPPCPAPELLLGPSVFLFPPKPKDTLMISRTPEVTCVVVDVSDEDPEVKFNWYVDGVEVHNAKTKPREELYNSTYRVVSVLTVLHQDWLNGKEYKCKVSNKALPKPIEKTISKAKGQPREPQVYTLPPSREEMTKNQVSLTCLVKGFYPSDIAVEWESNGQPENNYKTTPKVLDSDGSFFLYSKLTVDKSRWQQGNVFSCSVMHEALHNHYTQKSLSLSP light: DIVMTQSPATLSLSPGERATLSCTSSQSVYHANWLSWFQQKPGQPPKLLIYWASTLAYGVPSRFSGSGSGTDFTLTISSLQPEDAATYYCAGGYGGGRYAFGQGTKVEIKRTVAAPSVFIFPPSDEQLKSGTASVVCLLNNFYPREAKVQWKVDNALQSGNSQESVTEQDSKDSTYSLSSTLTLSKADYEKHKVYACEVTHQGLSSPVTKSFNRGEC | 17 µM
M103205H795-MY283/M103202L889-SK1 (antibody, human IgG1, kappa, Substitutions introduced into M103205H795-SG1, expressed with M103202L889-SK1 as light chain; EU numbering) heavy: QVTLKESGPVLVKPTETLTLTCTVSGIDLSHDDISWVRQAPGKGLEWVGIISYAGSTYYASWAKGRLTISKDTSKNQVVLTMTNMDPVDTATYYCARGVPAYSHGGDLWGQGTLVTVSSASTKGPSVFPLAPSSKSTSGGTAALGCLVKDYFPEPVTVSWNSGALTSGVHTFPAVLQSSGLYSLSSVVTVPSSSLGTQTYICNVNHKPSNTKVDKKVEPKSCDKTHTCPPCPAPELLTGPSVFLFPPKPKDTLMISRTPEVTCVVVDVSDEDPEVKFNWYVDGVEVHNAKTKPREELYNSTYRVVSVLTVLHQDWLNGKEYKCKVSNKALPKPIEKTISKAKGQPREPQVYTLPPSREEMTKNQVSLTCLVKGFYPSDIAVEWESNGQPENNYKTTPPVLDSDGSFFLYSKLTVDKSRWQQGNVFSCSVMHEALHNHYTQKSLSLSP light: DIVMTQSPATLSLSPGERATLSCTSSQSVYHANWLSWFQQKPGQPPKLLIYWASTLAYGVPSRFSGSGSGTDFTLTISSLQPEDAATYYCAGGYGGGRYAFGQGTKVEIKRTVAAPSVFIFPPSDEQLKSGTASVVCLLNNFYPREAKVQWKVDNALQSGNSQESVTEQDSKDSTYSLSSTLTLSKADYEKHKVYACEVTHQGLSSPVTKSFNRGEC | 5.7 µM
